Experiment [1] deals with T1, native human ApoC3 (human, UniProt P02656 21-99, biotinylated in the captured-antigen assays (Tables 6 and 8); sites not stated).
T1 construct: also called nhuApoC3; native huApoC3
In words: SPR, antigen immobilized on CM5 chip, IgG as analyte, pH 7.4; footnote: n/a: not applicable; below the limits of detection kd: 1E-06 1/s. On the technique in general: SPR reads the build-up and loss of mass on a sensor chip optically.

In experiment [2] the target is T1, native human ApoC3. Description: SPR, IgG captured via anti-human Fc, ApoC3 analyte 100 nM. The protocol:
(§1) Immobilization was performed in accordance with the method provided by Biacore in the NHS/EDC kit (Biacore AB). Briefly, after activation of the chip, a solution of 30 μg/ml anti-human Fcγ antibody in 10 mM acetate buffer with pH 5.0 was injected until the surface density reached approximately 10,000 RU. […] Following antibody capture, 100 μl of HBS-EP buffer was injected and passed through the flow cells at 30 μl/min. To bind target, 60 μl of 400 nM, 200 nM, 100 nM, or 50 nM ApoC3 protein in HBS-EP buffer was injected. An off-rate wash was performed by injection of HBS-EP buffer at 30 μl/min for 5 min. After dissociation, the flow cell surfaces were regenerated by injecting 20 μl of 10 mM glycine at pH 1.5.
(§2) The resulting sensorgrams were analysed with BIAevaluation 4.1 software using the Langmuir 1:1 binding model to derive binding kinetics. Data was zero adjusted and the reference cell sensorgrams were subtracted. A no-analyte blank assay was used for double referencing the sensorgrams corresponding to nhuApoC3 and rcyApoC3 injections. The dissociation and association phase sensorgrams were fitted separately for the 4 different concentration curves. Sensorgrams were excluded from the fitting if maximum RU values were below the limit of detection (i.e., <5 RU). SPR signals were too low to calculate kinetic parameters for […].

For experiment [3], the target named is T1, native human ApoC3. Description: SPR, IgG captured via anti-human Fc, ApoC3 analyte 400 nM. How it is done: as §1, §2
Experiment [4] deals with T1, native human ApoC3. In words: SPR, IgG captured via anti-human Fc, ApoC3 analyte 200 nM. The protocol:
as §1, §2

Experiment [5] deals with T1, native human ApoC3. Description: SPR, IgG captured via anti-human Fc, ApoC3 analyte 50 nM. How it is done: as §1, §2
Experiment [6] has as its target T1, native human ApoC3. Description: SPR, biotinylated antigen captured on streptavidin chip, IgG as analyte, pH 7.4.
The target of experiment [7] is T2, recombinant cynomolgus ApoC3 (cynomolgus monkey, UniProt P18659 21-99, biotinylated in the captured-antigen assays (Tables 6 and 8); sites not stated).
T2 construct: No cleavage site is stated, so none is applied; also called rcyApoC3; bio-rcyApoC3
T2 sequence (P18659 21-99 limits assumed): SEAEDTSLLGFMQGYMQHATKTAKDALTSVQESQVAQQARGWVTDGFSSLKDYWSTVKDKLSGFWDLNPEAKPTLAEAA
In words: SPR, IgG captured via anti-human Fc, ApoC3 analyte 100 nM. The protocol:
as §1, §2

In experiment [8] the target is T2, recombinant cynomolgus ApoC3. In words: SPR, IgG captured via anti-human Fc, ApoC3 analyte 400 nM. How it is done:
as §1, §2

In experiment [9] the target is T1, native human ApoC3. Description: SPR, antigen immobilized on CM5 chip, IgG as analyte, pH 7.4.
Experiment [10] concerns the target T2, recombinant cynomolgus ApoC3. Described as above.
For experiment [11] the target is unchanged. In words: SPR, IgG captured via anti-human Fc, ApoC3 analyte 200 nM. The protocol:
as §1, §2

The target is the same in experiment [12]. In words: SPR, biotinylated antigen captured on streptavidin chip, IgG as analyte, pH 7.4.
For experiment [13] the target is unchanged. Description: SPR, biotinylated antigen captured on streptavidin chip, IgG as analyte, pH 7.4; biotinylated antigen captured on streptavidin chip, IgG as analyte.
For experiment [14] the target is unchanged. In words: SPR, antigen immobilized on CM5 chip, IgG as analyte, pH 7.4; antigen immobilized on chip, IgG as analyte (12.5-0.8 nM).
For experiment [15], the target named is T1, native human ApoC3. In words: SPR, biotinylated antigen captured on streptavidin chip, IgG as analyte, pH 7.4; footnote: n/a: not applicable; below the limits of detection kd: 1E-06 1/s.
The target in experiment [16] is T2, recombinant cynomolgus ApoC3. Description: SPR, antigen immobilized on CM5 chip, IgG as analyte, pH 7.4; antigen immobilized on chip, IgG as analyte (50-0.8 nM).

Numbering of substitutions follows the chain as printed. A value given as a limit tells only on which side of the number the result lay.

Usually koff stands for a measure of how fast the partners let go of each other. What is called Kd is the concentration at which binding is half-saturated. A word on the kon: it is the second-order rate constant of association.

T1 sequence (P02656 21-99): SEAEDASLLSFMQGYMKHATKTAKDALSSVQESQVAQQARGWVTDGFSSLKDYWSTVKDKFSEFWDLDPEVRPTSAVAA

B1: 5E5 WT IgG (antibody, V domains shown)
VH: QLQLVESGGGLVQPGGSLRLSCAASGFTFGTYSMRWVRQVPRKALEWVSSISTDGGGTAYRDSVKGRFTISRDNAKNTLYLQMNNLKPEDTAIYYCVIAGYSDWGQGTQVTVSS
VL: ATMLTQSPGSLSVVPGESASISCKTSQGLVHSDGKTYFYWFLQKPGQSPQQLIYQVSNRASGVPDRFTGSGSGTDFTLKISGVKAEDAGVYYCAQGTYYPHTFGSGTRLEIK
notes: Full-length IgG captured by an anti-human Fc antibody
For the molecule B1, the dissociation rate constant (koff) is below 1e-06 s⁻¹ in the experiment with native human ApoC3 [1]; 0.000121 s⁻¹ in the experiment with native human ApoC3 [2]; 0.000122 s⁻¹ in the experiment with native human ApoC3 [3]; 0.000128 s⁻¹ in the experiment with native human ApoC3 [4]; 0.000114 s⁻¹ in the experiment with native human ApoC3 [5]; 1.8e-05 s⁻¹ with native human ApoC3 [6]. The Kd with native human ApoC3 [2] was 0.734 nM; with native human ApoC3 [3], 0.741 nM; with native human ApoC3 [4], 0.77 nM; with native human ApoC3 [5] it was 0.695 nM; with native human ApoC3 [6] it was 0.05 nM. For the same molecule, the kon came to 165000 M⁻¹ s⁻¹ with native human ApoC3 [2]; 165000 M⁻¹ s⁻¹ with native human ApoC3 [3]; 166000 M⁻¹ s⁻¹ with native human ApoC3 [4]; 164000 M⁻¹ s⁻¹ with native human ApoC3 [5]; 350000 M⁻¹ s⁻¹ with native human ApoC3 [6].

B2: 29A05 IgG (antibody, V domains shown)
VH: B1 VH
VL: DVVLTQTPGSLSVVPGESASISCKASQSLVYSDGKTYLYWLLQKPGQSPQRLIYQVSNRDSGVPDRFTGSGSGTDFTLKISGVKVEDAGVYYCAQGTYWPKTFGQGTKLEIK
For B2, the Kd worked out at 6.42 nM with native human ApoC3 [2]; 296 nM in experiment [7]; 7.36 nM in the experiment with native human ApoC3 [3]; 365 nM in [8]; 0.16 nM with native human ApoC3 [9]; 0.21 nM in experiment [10]. Moreover, the Kd came to 6.87 nM with native human ApoC3 [4]; 359 nM in experiment [11]; 6.01 nM with native human ApoC3 [5]; 0.13 nM with native human ApoC3 [6]; 0.65 nM in [12]. In addition, the koff in the experiment with native human ApoC3 [2] was 0.00132 s⁻¹; in experiment [7] it was 0.00887 s⁻¹; with native human ApoC3 [3], 0.00133 s⁻¹; in experiment [8], 0.00983 s⁻¹; with native human ApoC3 [9], 8.2e-05 s⁻¹; in experiment [10], 6.4e-05 s⁻¹. For the same molecule, the koff with native human ApoC3 [4] is 0.00133 s⁻¹; in [11], 0.00875 s⁻¹; in the experiment with native human ApoC3 [5], 0.00126 s⁻¹; in the experiment with native human ApoC3 [6], 6.3e-05 s⁻¹; in [12], 0.000175 s⁻¹. Further, the kon with native human ApoC3 [2] was 206000 M⁻¹ s⁻¹; in [7], 30000 M⁻¹ s⁻¹; in the experiment with native human ApoC3 [3], 181000 M⁻¹ s⁻¹; in experiment [8] it was 26900 M⁻¹ s⁻¹; with native human ApoC3 [9] it was 520000 M⁻¹ s⁻¹; in experiment [10], 310000 M⁻¹ s⁻¹. Further, the association rate constant (kon) turned out to be 194000 M⁻¹ s⁻¹ with native human ApoC3 [4]; 24400 M⁻¹ s⁻¹ in [11]; 210000 M⁻¹ s⁻¹ with native human ApoC3 [5]; 500000 M⁻¹ s⁻¹ with native human ApoC3 [6]; 270000 M⁻¹ s⁻¹ in [12].

B3: 29G11 IgG (antibody, V domains shown)
VH: B1 VH
VL: B2 VL with E17G, L42R, D60P, V85A, G96D, W99S, P100T
As to B3, the Kd in the experiment with native human ApoC3 [2] worked out at 4.85 nM; with native human ApoC3 [3], 5.76 nM; with native human ApoC3 [9], 0.04 nM; in experiment [14], 0.38 nM; with native human ApoC3 [4], 5.21 nM; in the experiment with native human ApoC3 [5] it was 4.79 nM. In addition, the figures for the dissociation constant Kd (with native human ApoC3 [6]; in experiment [12]) were 0.05 nM and 0.25 nM, respectively. Also, the koff with native human ApoC3 [2] was found to be 0.00117 s⁻¹; in experiment [13], 0.000228 s⁻¹; with native human ApoC3 [3] it was 0.00119 s⁻¹; in the experiment with native human ApoC3 [9] it was 6.3e-05 s⁻¹; in experiment [14], 0.000531 s⁻¹; with native human ApoC3 [4], 0.00122 s⁻¹. Also, the koff in the experiment with native human ApoC3 [5] was found to be 0.00115 s⁻¹; with native human ApoC3 [6], 7.3e-05 s⁻¹. For the same molecule, the kon with native human ApoC3 [2] worked out at 241000 M⁻¹ s⁻¹; in experiment [13] it was 920000 M⁻¹ s⁻¹; with native human ApoC3 [3], 207000 M⁻¹ s⁻¹; with native human ApoC3 [9], 1.44e+06 M⁻¹ s⁻¹; in experiment [14], 1.4e+06 M⁻¹ s⁻¹; with native human ApoC3 [4], 234000 M⁻¹ s⁻¹. Further, the kon with native human ApoC3 [5] was found to be 240000 M⁻¹ s⁻¹; with native human ApoC3 [6] it was 1.38e+06 M⁻¹ s⁻¹.

B4: 29F10 IgG (antibody, V domains shown)
VH: B1 VH
VL: B2 VL with S18P, I21V, Y31H, S32P, D60G, K79E, V85A
As to B4, the Kd was 1.63 nM with native human ApoC3 [2]; 1.8 nM with native human ApoC3 [3]; 0.04 nM with native human ApoC3 [9]; 1.63 nM with native human ApoC3 [4]; 1.71 nM with native human ApoC3 [5]; 2.79 nM in [16]. In addition, in [12], the Kd amounted to 1.75 nM. In addition, the koff was 0.000219 s⁻¹ with native human ApoC3 [2]; 0.000388 s⁻¹ in [13]; below 1e-06 s⁻¹ with native human ApoC3 [15]; 0.000219 s⁻¹ with native human ApoC3 [3]; 2.4e-05 s⁻¹ with native human ApoC3 [9]; 0.000217 s⁻¹ in the experiment with native human ApoC3 [4]. The figures for the off-rate (koff) (with native human ApoC3 [5]; in [16]) were 0.000246 s⁻¹ and 0.000774 s⁻¹, respectively. The kon with native human ApoC3 [2] was 134000 M⁻¹ s⁻¹; in experiment [13], 220000 M⁻¹ s⁻¹; with native human ApoC3 [3] it was 122000 M⁻¹ s⁻¹; with native human ApoC3 [9] it was 620000 M⁻¹ s⁻¹; with native human ApoC3 [4], 133000 M⁻¹ s⁻¹; with native human ApoC3 [5] it was 144000 M⁻¹ s⁻¹. Further, the kon in experiment [16] came out at 280000 M⁻¹ s⁻¹.

B5: 29G02 IgG (antibody, V domains shown)
VH: B1 VH
VL: DVVLTQTPGSLSVVPGESASISCKATQSLVHIDGKTYLYWLLQKPGQSPQRLIYQVSTRDSGVPDRFTGAGSGAEFTLKISGVKAEDAGVYYCAQDTYSTKTFGQGTKLEIK
As for B5, the Kd with native human ApoC3 [2] was found to be 2.52 nM; with native human ApoC3 [3] it was 3.04 nM; with native human ApoC3 [9] it was 0.01 nM; in experiment [14], 0.5 nM; in the experiment with native human ApoC3 [4], 2.57 nM; in the experiment with native human ApoC3 [5], 2.31 nM. Further, the Kd with native human ApoC3 [6] was determined as 0.02 nM; in experiment [12], 0.37 nM. The koff was 0.000758 s⁻¹ in the experiment with native human ApoC3 [2]; 0.000275 s⁻¹ in [13]; 0.000752 s⁻¹ in the experiment with native human ApoC3 [3]; 1.6e-05 s⁻¹ with native human ApoC3 [9]; 0.000552 s⁻¹ in experiment [14]; 0.000733 s⁻¹ with native human ApoC3 [4]. The koff was 0.000718 s⁻¹ with native human ApoC3 [5] and 3.3e-05 s⁻¹ with native human ApoC3 [6]. Also, the kon in the experiment with native human ApoC3 [2] is 301000 M⁻¹ s⁻¹; in [13], 750000 M⁻¹ s⁻¹; with native human ApoC3 [3], 247000 M⁻¹ s⁻¹; in the experiment with native human ApoC3 [9], 1.32e+06 M⁻¹ s⁻¹; in [14], 1.11e+06 M⁻¹ s⁻¹; with native human ApoC3 [4], 286000 M⁻¹ s⁻¹. Also, the figures for the kon in the experiment with native human ApoC3 [5] and in the experiment with native human ApoC3 [6] were 311000 M⁻¹ s⁻¹ and 1.31e+06 M⁻¹ s⁻¹, respectively.
